Where a chain is given by its changes, count along the chain named.
Assays:
[1] = molecular target: T1, recombinant human Tie2/Fc Chimera (R&D Systems Cat No 313-TI, Lot No BKC06) (human, UniProt Q02763 23-745); assay: competition ELISA: 0.2 ug/ml Tie2/Fc pre-incubated with 10 ul periplasmic extract, then on coated Ang1 (0.75 ug/ml); bound Tie2/Fc detected with anti-human IgG-HRP; blocked ligand: Ang1
T1 construct: Bought reagent; also called receptor; not shown: Fc portion of the bought chimera
T1 sequence (Q02763 23-745, change not shown): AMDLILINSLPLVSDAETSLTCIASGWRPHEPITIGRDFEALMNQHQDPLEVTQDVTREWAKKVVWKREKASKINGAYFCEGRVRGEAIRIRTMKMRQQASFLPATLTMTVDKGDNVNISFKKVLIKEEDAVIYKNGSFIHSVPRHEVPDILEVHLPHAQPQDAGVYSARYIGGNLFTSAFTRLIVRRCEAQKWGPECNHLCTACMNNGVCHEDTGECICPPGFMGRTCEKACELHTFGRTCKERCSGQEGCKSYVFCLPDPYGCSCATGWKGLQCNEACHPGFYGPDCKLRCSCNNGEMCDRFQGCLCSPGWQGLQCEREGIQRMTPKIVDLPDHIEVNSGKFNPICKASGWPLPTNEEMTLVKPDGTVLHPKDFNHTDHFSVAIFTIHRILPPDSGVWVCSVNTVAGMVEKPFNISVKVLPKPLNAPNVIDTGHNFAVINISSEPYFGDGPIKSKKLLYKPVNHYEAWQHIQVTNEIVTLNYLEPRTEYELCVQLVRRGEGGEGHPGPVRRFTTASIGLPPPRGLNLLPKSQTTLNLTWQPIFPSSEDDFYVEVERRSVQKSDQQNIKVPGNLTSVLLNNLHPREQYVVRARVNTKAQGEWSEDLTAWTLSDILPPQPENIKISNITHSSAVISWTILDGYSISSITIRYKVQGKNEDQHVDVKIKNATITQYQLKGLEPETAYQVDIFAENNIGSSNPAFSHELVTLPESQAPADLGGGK
Protocol: Clones tested positive in the Tie2 binding assay are screened for their ability to block Ang1 binding to Tie2/Fc. For this, Nanobody-containing periplasmic extracts (P.E.) are used in an ELISA-based ligand competition setup. In short, 0.75 ug/ml human Ang1 (R&D Systems Cat No 923-AN/CF Lot No FHWO73091) is coated in 96 well Maxisorp microtiter plates (Nunc) and blocked with 4% Marvel skimmed milk in PBS. In parallel, 0.2 ug/ml Tie2/Fc is incubated with 10 ul of periplasmic extract P.E. containing nanobody of the different clones in 100 ul 2% Marvel/PBS. After 1 hour, the receptor-Nanobody pre-mixes are incubated 1 hour with the coated ligand. Bound Tie2/Fc is detected using HRP-conjugated goat anti-human IgG (Jackson Immunoresearch, Cat #109-035-098). Blocking activity is determined as loss of OD signal, as compared to wells where no P.E., or irrelevant P.E., has been added.

[2] = molecular target: T2, Recombinant human Angiopoietin-2 (R&D Systems Cat No 623-AN/CF) (human, UniProt O15123 19-496, limits assumed); assay: phage ELISA: 10 ul monoclonal phage supernatant in 100 ul on 0.2 ug/ml coated Ang2, anti-M13-HRP, OD 450 nm
T2 construct: Bought reagent; also called Ang2; human Ang2
T2 sequence (looked up): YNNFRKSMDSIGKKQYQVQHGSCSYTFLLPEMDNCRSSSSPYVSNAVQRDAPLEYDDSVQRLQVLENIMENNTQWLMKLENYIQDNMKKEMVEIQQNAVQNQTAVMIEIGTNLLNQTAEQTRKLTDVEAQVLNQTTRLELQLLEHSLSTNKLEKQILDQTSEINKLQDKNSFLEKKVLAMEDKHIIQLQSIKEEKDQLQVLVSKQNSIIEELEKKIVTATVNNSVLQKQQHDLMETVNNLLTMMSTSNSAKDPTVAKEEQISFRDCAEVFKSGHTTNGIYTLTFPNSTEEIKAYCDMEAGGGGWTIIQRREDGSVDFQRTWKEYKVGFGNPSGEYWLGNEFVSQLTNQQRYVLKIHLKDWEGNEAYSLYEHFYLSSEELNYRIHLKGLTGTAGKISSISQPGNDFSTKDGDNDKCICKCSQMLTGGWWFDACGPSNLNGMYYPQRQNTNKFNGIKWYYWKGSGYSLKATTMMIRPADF
Protocol: In order to determine binding specificity to Ang2, the clones are tested in an ELISA binding assay setup, using the monoclonal phage pools. Phage binding to Ang2 (R&D Systems Cat No 623-AN/CF) is tested. Shortly, 0.2 ug/ml Ang2 is immobilized on Maxisorp ELISA plates (Nuns) and free binding sites are blocked using 4% Marvel skimmed milk in PBS. Next, 10 ul of supernatant from the monoclonal phage inductions of the different clones in 100 ul 2% Marvel. PBS are allowed to bind to the immobilized antigen. […] Binding specificity is determined based on OD values compared to controls having received an irrelevant phage or no phage.

[3] = molecular target: T3, biotinylated rh Ang2 (R&D Systems Cat No BT623, Lot No BNR174091) (human, UniProt O15123 19-496, limits assumed, biotinylated (sites not given)); assay: competition ELISA: 0.05 ug/ml biotinylated Ang2 pre-incubated with 10 ul periplasmic extract, then on coated Tie2/Fc (4 ug/ml); bound Ang2 detected with extravidin-HRP; blocked partner: Tie2/Fc
T3 construct: Bought reagent; also called biotinylated Ang2
T3 sequence (looked up): T2 sequence (looked up)
Protocol: Clones tested positive in the Ang2 binding assay are screened for their ability to block Ang2 binding to Tie2/Fc. For this, Nanobody-containing periplasmic extracts (P.E.) are used in an ELISA-based ligand competition setup. In short, 4 ug/ml human Tie2/Fc Chimera (R&D Systems Cat No 313-TI, Lot No BKC06)) is coated in 96 well Maxisorp microliter plates (Nunc) and blocked with 4% Marvel skimmed milk in PBS. In parallel, 0.05 ug/ml biotinylated rh Ang2 (R&D Systems Cat No BT623, Lot No BNR174091) is incubated with 10 ul of periplasmic extract containing nanobody of the different clones in 100 ul 2% Marvel/PBS. After 1 hour, the biotinylated Ang2-Nanobody pre-mixes are incubated 1 hour with the coated receptor. Bound biotinylated. Ang2 is detected using HRP-conjugated extravidin (SIGMA E2886-1mL, 126K4801). Blocking activity is determined as loss of OD signal, as compared to wells where no P.E., or irrelevant P.E., has been added.

[4] = molecular target: T4, Recombinant human Angiopoietin-4 (R&D Systems Cat No 964-AN/CF) (human, UniProt Q9Y264 25-503, limits assumed); assay: phage ELISA on coated Ang4: 10 ul monoclonal phage supernatant in 100 ul, anti-M13-HRP, OD 450 nm
T4 construct: Bought reagent; also called Ang4
T4 sequence (looked up): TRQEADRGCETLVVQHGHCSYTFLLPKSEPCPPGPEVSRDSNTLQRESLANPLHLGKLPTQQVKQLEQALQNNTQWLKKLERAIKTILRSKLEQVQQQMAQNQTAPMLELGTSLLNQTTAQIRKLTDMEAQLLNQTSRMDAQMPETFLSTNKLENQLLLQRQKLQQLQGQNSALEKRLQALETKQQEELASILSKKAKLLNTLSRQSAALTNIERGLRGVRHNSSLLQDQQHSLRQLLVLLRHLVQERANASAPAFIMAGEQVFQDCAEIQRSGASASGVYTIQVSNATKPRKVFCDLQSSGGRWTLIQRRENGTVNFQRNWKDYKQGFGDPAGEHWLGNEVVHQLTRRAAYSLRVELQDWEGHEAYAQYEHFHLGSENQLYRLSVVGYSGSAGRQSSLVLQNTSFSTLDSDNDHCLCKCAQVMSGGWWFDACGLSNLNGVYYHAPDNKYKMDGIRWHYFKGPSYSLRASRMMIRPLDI

B1: 162-H10 (VHH)
VHH: EVQLVESGGGLVQPGGSLRLSCAASGFTLDDYAVGWFRQAPGKEREGVSCIGSSYGSTYYADSVKGRFTISRDNAKNTVYLQMNSLKPEDTAVYYCAVQGYSGGYYYTCEDSADFGFWGQGTQVTVSS
notes: Nanobody
binding result [1]: binds

B2: 163-E7 (VHH)
VHH: EVQLVESGGGLVQPGGSLRLSCAASGFTFSDYSMSWVRQAPGKGLEWVSAISGGGEVTTYADSVKGRFTISRDNAKNTLYLQMSSLKPEDTALYYCAEHLNFYSVSVRSSPTSQGTQVTVSS
notes: Nanobody
binding result [1]: binds

B3: 162-F11 (VHH)
VHH: EVQLVESGGGLVQAGGSLRLSCAASGFTFDDYAIGWFRQAPGKEREGVACISSSDGSTYYADSVKGRFTISSDNAKNTVYLQMNSLKPEDTAVYSCSAGSVAGCIPYYWGQGTQVTVSS
notes: Nanobody
binding result [1]: binds

B4: 163-H8 (VHH)
VHH: EVQLVESGGGLVQPGGSLRLSCAASGFTFGSNGMRWVRQAPGKGPEWVSSINSDGTSTYYAESVKGRFTISRDNAKNTLYLQMHSLKPEDTAVYYCTTTENPNPRGPGTQVTVSS
notes: Nanobody
binding result [1]: binds

B5: 163-E9 (VHH)
VHH: B4 VHH with G16D, E62D, Y80C, H84N, N101D, N103Y, P107Q
notes: Nanobody; also called Nanobody 163E9; Tie-2 Nanobody 163E9
binding result [1]: binds

B6: 163-G8 (VHH)
VHH: B4 VHH with T58A, Y59F, H84N, E100M, P107Q
notes: Nanobody
binding result [1]: binds

B7: 166-C1 (VHH)
VHH: EVQLVESGGGLVQAGGSLRLSCAASGFTFGSTTIGWFRQAPGKEREGVSCISTGDGSTYYAESVKGRFTISSDNAKNTVYLQMNSLKPEDTAVYYCALDQAPMWSSWSAPYEYDYWGQGTQVTVSS
notes: Nanobody
binding result [2]: binds | binding result [3]: binds

B8: 166-C10 (VHH)
VHH: B7 VHH with S31T, Y59N
notes: Nanobody
binding result [2]: binds | binding result [3]: binds

B9: 166-D7 (VHH)
VHH: B7 VHH with G30S, S31D, V48I, K87N, M103L, S106T
notes: Nanobody
binding result [2]: binds | binding result [3]: binds

B10: 166-E12 (VHH)
VHH: B7 VHH with E1K
notes: Nanobody
binding result [2]: binds

B11: 166-F8 (VHH)
VHH: B7 VHH with S31T, G47V, D55G, A61T, S106N
notes: Nanobody
binding result [2]: binds | binding result [3]: binds

B12: 166-D4 (VHH)
VHH: EVQLVESGGGLVQAGGSLRLSCVASGRIFTNTAMGWYRQAPGKWRELVATIYSGGSTKYIDSVKGRFIISRDNTRNTVHLQMNSLKPEDTAVYYCNTVGAGSYWGQGAQVTVSS
notes: Nanobody
binding result [2]: binds

B13: 169-F11 (VHH)
VHH: EVQLVESGGGLVQPGGSLRLSCATSGFTFSTSWMYWLRQAPGKGLEWVSTITPRGLTDYTNSVKGRFTVSRDNAKNTLYLQMNSLKSEDTAVYYCTKDKNGPPMGQGTQVTVSS
notes: Nanobody
binding result [4]: binds

B14: 169-A10 (VHH)
VHH: B13 VHH with T31P, D58E, T60A, V69I, R71K, K97R
notes: Nanobody
binding result [4]: binds

B15: 169-C8 (VHH)
VHH: B13 VHH with N61D, V69I, N73S, V92D, K97R
notes: Nanobody
binding result [4]: binds

B16: 168-A3 (VHH)
VHH: EVQLVESGGGLVQPGGSLRLSCAASGFTLSGNWMYWLRQAPGKGLEWISTITPRGLTAYADSVKGRFTISRDIAENTLYLQMNSLKSGDTAVYYCARDKTGERRGQGTQVTVSS
notes: Nanobody
binding result [4]: binds

B17: 168-E5 (VHH)
VHH: B16 VHH with G31S, G55D, I73N, G88E, R97K, T100A
notes: Nanobody
binding result [4]: binds

B18: 168-G3 (VHH)
VHH: EVQLVESGGGLVQPGGSLRLSCAASGSTLDYYAIGWYRQAPGKEREWVSCISSSNYGITTYADSVKGRFTISRDNAKNTVYLQMNSLKPEDTAIYYCATNTRRKYGRLCDLNADYWGQGTQVTVSS
notes: Nanobody
binding result [4]: binds

B19: 169-B12 (VHH)
VHH: EVQLVESGGGLVQAGGSLRLSCAASGSIFSINAMGWYRQAPGNQRDLVAAITSGDSTKYADFVKGRFTISRDNAKNTVYLQMNSLKPEDTAVYYCAAELLGKWYWGQGTQVTVSS
notes: Nanobody
binding result [4]: binds

B20: 169-E12 (VHH)
VHH: B19 VHH with A33T, S53N, D55G, A60V, F62S, L99S, K102R, Y104G
notes: Nanobody
binding result [4]: binds

B21: 169-A12 (VHH)
VHH: EVQLVESGGGLVQPGGSLRLSCVASGSIRSIIHMGWYRQAPGNERDLVAVIIDSRTTKYSESVKGRFTISRDNAKNTVYLQMNSLKPEDTAVYYCNALALGTDQSSTFDSWGQGTQVTVSS
notes: Nanobody
binding result [4]: binds

B22: 169-C12 (VHH)
VHH: B21 VHH with V23A, A40T, L47M, S60A
notes: Nanobody
binding result [4]: binds

From patent US20120076796A1 (Ablynx, published 2012)
